Sequences and labels used below:
B1: HSD17B12 (protein)
chain: MESALPAAGFLYWVGAGTVAYLALRISYSLFTALRVWGVGNEAGVGPGLGEWAVVTGSTDGIGKSYAEELAKHGMKVVLISRSKDKLDQVSSEIKEKFKVETRTIAVDFASEDIYDKIKTGLAGLEIGILVNNVGMSYEYPEYFLDVPDLDNVIKKMININILSVCKMTQLVLPGMVERSKGAILNISSGSGMLPVPLLTIYSATKTFVDFFSQCLHEEYRSKGVFVQSVLPYFVATKLAKIRKPTLDKPSPETFVKSAIKTVGLQSRTNGYLIHALMGSIISNLPSWIYLKIVMNMNKSTRAHYLKKTKKN
B2: SERPINE2 (protein)
chain: SHFNPLSLEELGSNTGIQVFNQIVKSRPHDNIVISPHGIASVLGMLQLGADGRTKKQLAMVMRYGVNGVGKILKKINKAIVSKKNKDIVTVANAVFVKNASEIEVPFVTRNKDVFQCEVRNVNFEDPASACDSINAWVKNETRDMIDNLLSPDLIDGVLTRLVLVNAVYFKGLWKSRFQPENTKKRTFVAADGKSYQVPMLAQLSVFRCGSTSAPNDLWYNFIELPYHGESISMLIALPTESSTPLSAIIPHISTKTIDSWMSIMVPKRVQVILPKFTAVAQTDLKEPLKVLGITDMFDSSKANFAKITTGSENLHVSHILQKAKIEVSEDGTKASAATTAILIARSSPPWFIVDRPFLFFIRHNPTGAVLFMGQINKP
B3: CASP14 (protein)
chain: MSNPRSLEEEKYDMSGARLALILCVTKAREGSEEDLDALEHMFRQLRFESTMKRDPTAEQFQEELEKFQQAIDSREDPVSCAFVVLMAHGREGFLKGEDGEMVKLENLFEALNNKNCQALRAKPKVYIIQACRGEQRDPGETVGGDEIVMVIKDSPQTIPTYTDALHVYSTVEGYIAYRHDQKGSCFIQTLVDVFTKRKGHILELLTEVTRRMAEAELVQEGKARKTNPEIQSTLRKRLYLQ
B4: CKAP4 (protein)
chain: MPSAKQRGSKGGHGAASPSEKGAHPSGGADDVAKKPPPAPQQPPPPPAPHPQQHPQQHPQNQAHGKGGHRGGGGGGGKSSSSSSASAAAAAAAASSSASCSRRLGRALNFLFYLALVAAAAFSGWCVHHVLEEVQQVRRSHQDFSRQREELGQGLQGVEQKVQSLQATFGTFESILRSSQHKQDLTEKAVKQGESEVSRISEVLQKLQNEILKDLSDGIHVVKDARERDFTSLENTVEERLTELTKSINDNIAIFTEVQKRSQKEINDMKAKVASLEESEGNKQDLKALKEAVKEIQTSAKSREWDMEALRSTLQTMESDIYTEVRELVSLKQEQQAFKEAADTERLALQALTEKLLRSEESVSRLPEEIRRLEEELRQLKSDSHGPKEDGGFRHSEAFEALQQKSQGLDSRLQHVEDGVLSMQVASARQTESLESLLSKSQEHEQRLAALQGRLEGLGSSEADQDGLASTVRSLGETQLVLYGDVEELKRSVGELPSTVESLQKVQEQVHTLLSQDQAQAARLPPQDFLDRLSSLDNLKASVSQVEADLKMLRTAVDSLVAYSVKIETNENNLESAKGLLDDLRNDLDRLFVKVEKIHEKV
B5: CANX (protein)
chain: HDGHDDDVIDIEDDLDDVIEEVEDSKPDTTAPPSSPKVTYKAPVPTGEVYFADSFDRGTLSGWILSKAKKDDTDDEIAKYDGKWEVEEMKESKLPGDKGLVLMSRAKHHAISAKLNKPFLFDTKPLIVQYEVNFQNGIECGGAYVKLLSKTPELNLDQFHDKTPYTIMFGPDKCGEDYKLHFIFRHKNPKTGIYEEKHAKRPDADLKTYFTDKKTHLYTLILNPDNSFEILVDQSVVNSGNLLNDMTPPVNPSREIEDPEDRKPEDWDERPKIPDPEAVKPDDWDEDAPAKIPDEEATKPEGWLDDEPEYVPDPDAEKPEDWDEDMDGEWEAPQIANPRCESAPGCGVWQRPVIDNPNYKGKWKPPMIDNPSYQGIWKPRKIPNPDFFEDLEPFRMTPFSAIGLELWSMTSDIFFDNFIICADRRIVDDWANDGWGLKKAADGAAEPGVVGQMIEAAEERPWLWVVYILTVALPVFLVILFCCSGKKQTSGMEYKKTDAPQPDVKEEEEEKEEEKDKGDEEEEGEEKLEEKQKSDAEEDGGTVSQEEEDRKPKAEEDEILNRSPRNRKPRRE
B6: SRSF7 (protein)
chain: MSRYGRYGGETKVYVGNLGTGAGKGELERAFSYYGPLRTVWIARNPPGFAFVEFEDPRDAEDAVRGLDGKVICGSRVRVELSTGMPRRSRFDRPPARRPFDPNDRCYECGEKGHYAYDCHRYSRRRRSRSRSRSHSRSRGRRYSRSRSRSRGRRSRSASPRRSRSISLRRSRSASLRRSRSGSIKGSRYFQSPSRSRSRSRSISRPRSSRSKSRSPSPKRSRSPSGSPRRSASPERMD
B7: ERLIN1 (protein)
chain: MNMTQARVLVAAVVGLVAVLLYASIHKIEEGHLAVYYRGGALLTSPSGPGYHIMLPFITTFRSVQTTLQTDEVKNVPCGTSGGVMIYIDRIEVVNMLAPYAVFDIVRNYTADYDKTLIFNKIHHELNQFCSAHTLQEVYIELFDQIDENLKQALQKDLNLMAPGLTIQAVRVTKPKIPEAIRRNFELMEAEKTKLLIAAQKQKVVEKEAETERKKAVIEAEKIAQVAKIRFQQKVMEKETEKRISEIEDAAFLAREKAKADAEYYAAHKYATSNKHKLTPEYLELKKYQAIASNSKIYFGSNIPNMFVDSSCALKYSDIRTGRESSLPSKEALEPSGENVIQNKESTG
B8: UQCRC2 (protein)
chain: SLKVAPKVKATAAPAGAPPQPQDLEFTKLPNGLVIASLENYSPVSRIGLFIKAGSRYEDFSNLGTTHLLRLTSSLTTKGASSFKITRGIEAVGGKLSVTATRENMAYTVECLRGDVDILMEFLLNVTTAPEFRRWEVADLQPQLKIDKAVAFQNPQTHVIENLHAAAYRNALANPLYCPDYRIGKVTSEELHYFVQNHFTSARMALIGLGVSHPVLKQVAEQFLNMRGGLGLSGAKANYRGGEIREQNGDSLVHAAFVAESAVAGSAEANAFSVLQHVLGAGPHVKRGSNTTSHLHQAVAKATQQPFDVSAFNASYSDSGLFGIYTISQATAAGDVIKAAYNQVKTIAQGNLSNTDVQAAKNKLKAGYLMSVESSECFLEEVGSQALVAGSYMPPSTVLQQIDSVANADIINAAKKFVSGQKSMAASGNLGHTPFVDEL
B9: HSPH1 (protein)
chain: SVVGLDVGSQSCYIAVARAGGIETIANEFSDRCTPSVISFGSKNRTIGVAAKNQQITHANNTVSNFKRFHGRAFNDPFIQKEKENLSYDLVPLKNGGVGIKVMYMGEEHLFSVEQITAMLLTKLKETAENSLKKPVTDCVISVPSFFTDAERRSVLDAAQIVGLNCLRLMNDMTAVALNYGIYKQDLPSLDEKPRIVVFVDMGHSAFQVSACAFNKGKLKVLGTAFDPFLGGKNFDEKLVEHFCAEFKTKYKLDAKSKIRALLRLYQECEKLKKLMSSNSTDLPLNIECFMNDKDVSGKMNRSQFEELCAELLQKIEVPLYSLLEQTHLKVEDVSAVEIVGGATRIPAVKERIAKFFGKDISTTLNADEAVARGCALQCAILSPAFKVREFSVTDAVPFPISLIWNHDSEDTEGVHEVFSRNHAAPFSKVLTFLRRGPFELEAFYSDPQGVPYPEAKIGRFVVQNVSAQKDGEKSRVKVKVRVNTHGIFTISTASMVEKVPTEENEMSSEADMECLNQRPPENPDTDANEKKVDQPPEAKKPKIKVVNVELPIEANLVWQLGKDLLNMYIETEGKMIMQDKLEKERNDAKNAVEEYVYEFRDKLCGPYEKFICEQDHQNFLRLLTETEDWLYEEGEDQAKQAYVDKLEELMKIGTPVKVRFQEAEERPKMFEELGQRLQHYAKIAADFRNKDEKYNHIDESEMKKVEKSVNEVMEWMNNVMNAQAKKSLDQDPVVRAQEIKTKIKELNNTCEPVVTQPKPKIESPKLERTPNGPNIDKKEEDLEDKNNFGAEPPHQNGECYPNEKNSVNMDLD
B10: PRR4 (protein)
chain: QSTDNDVNYEDFTFTIPDVEDSSQRPDQGPQRPPPEGLLPRPPGDSGNQDDGPQQRPPKPGGHHRHPPPPPFQNQQRPPRRGHRQLSLPRFPSVSLQEASSFFQRDRPARHPQEQPLW

For one experiment, the target named is T1, B3GNT2 (Homo sapiens, UniProt Q9NY97).
T1 construct: The respective ORFs of candidate genes [CD274 (NM_014143), MCL1 (NM_021960), JUNB (NM_002229), and B3GNT2 (NM_006577)] were synthesized; expressed in transfected cells; host or cells: A375 melanoma cells (lentiviral ORF overexpression)
T1 sequence (Q9NY97 1-397): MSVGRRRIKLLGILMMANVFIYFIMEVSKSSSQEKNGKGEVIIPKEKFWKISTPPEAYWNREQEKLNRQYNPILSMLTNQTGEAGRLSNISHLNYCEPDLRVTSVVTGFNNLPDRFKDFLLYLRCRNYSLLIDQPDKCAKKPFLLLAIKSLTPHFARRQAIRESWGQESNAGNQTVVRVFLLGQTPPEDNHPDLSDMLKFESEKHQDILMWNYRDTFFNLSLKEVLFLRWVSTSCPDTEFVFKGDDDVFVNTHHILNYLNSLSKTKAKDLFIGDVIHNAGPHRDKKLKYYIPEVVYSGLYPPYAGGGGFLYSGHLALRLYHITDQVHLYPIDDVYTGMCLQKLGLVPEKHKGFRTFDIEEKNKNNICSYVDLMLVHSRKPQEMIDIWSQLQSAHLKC
Nature of the experiment: Co-IP of FLAG-tagged B3GNT2 followed by mass spectrometry. The format is cell-based. Also noted: C-term IgG / C-term flag: unit not given here. The following applies: Co-IP with FLAG antibody, C-terminally FLAG-tagged B3GNT2; mass spectrometry count, unit not given. The method in brief:
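FLAG-tagged B3GNT2 immunoprecipitated from cell lysate (HEPES, 1% Triton X-100, 150 mM NaCl) with anti-FLAG versus […], overnight at 4° C, then captured on Protein A/G magnetic beads for 4 h. Two biological replicates per condition. Peptides fractionated and analyzed by nano-LC on an Orbitrap Elite in data-dependent mode.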
As to B1, the C-term flag worked out at 10.

Take B2: the C-term flag came out at 11.

Molecule B3 gave a C-term flag of 9.

Molecule B4 gave a C-term flag of 14.

In turn, B5 came in with a C-term flag of 11.

Take B6: the C-term flag is on record as 0.

B7: the C-term flag was 9.

In turn, B8 registered a C-term flag of 4.

Regarding B9, the C-term flag is listed as 7.

In turn, B10 had a C-term flag of 0.

Still in this experiment, the particulars now being: Co-IP with FLAG antibody, N-terminally FLAG-tagged B3GNT2; mass spectrometry count, unit not given.
B1: the “N-term FLAG” value is 10.

Regarding B2, the “N-term FLAG” value is 4.

As for B3, the “N-term FLAG” value is 8.

In the case of B4, the “N-term FLAG” value turned out to be 2.

With B5, the “N-term FLAG” value stood at 6.

Consider B6, for which the “N-term FLAG” value is recorded as 2.

With B7, the “N-term FLAG” value turned out to be 11.

Turning to B8, the “N-term FLAG” value was determined as 13.

Turning to B9, the “N-term FLAG” value was 8.

B10: the “N-term FLAG” value came out at 2.

Staying with this experiment, now noted: Co-IP with IgG control antibody, C-terminally FLAG-tagged B3GNT2; mass spectrometry count, unit not given.
B1: the “C-term IgG” value was found to be 0.

As to B2, the “C-term IgG” value turned out to be 0.

For the molecule B3, the “C-term IgG” value worked out at 4.

As to B4, the “C-term IgG” value was 0.

With B5, the “C-term IgG” value is 0.

Regarding B6, the “C-term IgG” value turned out to be 0.

B7: the “C-term IgG” value is reported as 0.

Consider B8, for which the “C-term IgG” value was determined as 0.

For the molecule B9, the “C-term IgG” value was found to be 0.

As to B10, the “C-term IgG” value was 0.

Staying with this experiment, now noted: Co-IP with IgG control antibody, N-terminally FLAG-tagged B3GNT2; mass spectrometry count, unit not given.
With B1, the “N-term IgG” value was determined as 0.

As for B2, the “N-term IgG” value amounted to 0.

As to B3, the “N-term IgG” value stood at 3.

As for B4, the “N-term IgG” value is 0.

Turning to B5, the “N-term IgG” value stood at 0.

In the case of B6, the “N-term IgG” value turned out to be 0.

For B7, the “N-term IgG” value is listed as 0.

B8: the “N-term IgG” value stood at 0.

For B9, the “N-term IgG” value is listed as 0.

Consider B10, for which the “N-term IgG” value was 0.

Values taken from US20240261333A1, “NOVEL TARGETS FOR ENHANCING ANTI-TUMOR IMMUNITY” (THE BROAD INSTITUTE, INC., priority 2021, published 2024).
